# Where “and” joins values, the source holds several entries; their conditions need not be identical. Identical values can stand only once.
# B1: PD33 Fab fragment (Fab, V domains shown)
# VH: EVQLVESGGGLVQPGGSLRLSCAASGFTFSHYTMNWVRQAPGRGLEWVSSITTSSNFIYYADSVKGRFTISRDNTKNSLYLQMNSLSAEDTAVYFCARGGWELSYFDFWGQGTLVTVSS
# VL: DIVMTQSPLSLPVTLGQPASISCRSSQSLVYSDGNTFLNWFQQRPGQSPRRLIYKVSNRDSGVPDRFSGSGSGTDFTLRISRVEAEDVGFYYCMQGTHWPPTFGPGTKVEIK
# B2: PD41 Fab fragment (Fab, V domains shown)
# VH: HSQLQESGPGLVKPSQTLSLTCTVSGGSISSAGYYWNWIRQHPGKGLEWIGYIYYSGNTYYNPSLKSRVTISVDTSKSQFSLKLNSVTAADTAVYYCARKIVNWFDPWGQGTLVTVSS
# VL: QSALTQPASVSGSPGQSITISCTGTSSDVGGYNYVSWYQQHPGKAPKLMIYDVSERPSGVSNRFSGSKSGNTASLTISGLQAEDEADYFCCSYAGYTTYVVFGGGTQLTVL
# What was measured:
# [1] = target: human APN ectodomain, Fc fusion (human) (UniProt P15144); assay: BLI; RBD to hAPN-Fc, series from 5 uM two-fold down to 39 nM; apparent KD; Octet Red, 30 C, 10 x Kinetics Buffer; 1:1 binding model; who was immobilised is not told for this series
# Chain of human APN ectodomain, Fc fusion (human) (P15144 66-967): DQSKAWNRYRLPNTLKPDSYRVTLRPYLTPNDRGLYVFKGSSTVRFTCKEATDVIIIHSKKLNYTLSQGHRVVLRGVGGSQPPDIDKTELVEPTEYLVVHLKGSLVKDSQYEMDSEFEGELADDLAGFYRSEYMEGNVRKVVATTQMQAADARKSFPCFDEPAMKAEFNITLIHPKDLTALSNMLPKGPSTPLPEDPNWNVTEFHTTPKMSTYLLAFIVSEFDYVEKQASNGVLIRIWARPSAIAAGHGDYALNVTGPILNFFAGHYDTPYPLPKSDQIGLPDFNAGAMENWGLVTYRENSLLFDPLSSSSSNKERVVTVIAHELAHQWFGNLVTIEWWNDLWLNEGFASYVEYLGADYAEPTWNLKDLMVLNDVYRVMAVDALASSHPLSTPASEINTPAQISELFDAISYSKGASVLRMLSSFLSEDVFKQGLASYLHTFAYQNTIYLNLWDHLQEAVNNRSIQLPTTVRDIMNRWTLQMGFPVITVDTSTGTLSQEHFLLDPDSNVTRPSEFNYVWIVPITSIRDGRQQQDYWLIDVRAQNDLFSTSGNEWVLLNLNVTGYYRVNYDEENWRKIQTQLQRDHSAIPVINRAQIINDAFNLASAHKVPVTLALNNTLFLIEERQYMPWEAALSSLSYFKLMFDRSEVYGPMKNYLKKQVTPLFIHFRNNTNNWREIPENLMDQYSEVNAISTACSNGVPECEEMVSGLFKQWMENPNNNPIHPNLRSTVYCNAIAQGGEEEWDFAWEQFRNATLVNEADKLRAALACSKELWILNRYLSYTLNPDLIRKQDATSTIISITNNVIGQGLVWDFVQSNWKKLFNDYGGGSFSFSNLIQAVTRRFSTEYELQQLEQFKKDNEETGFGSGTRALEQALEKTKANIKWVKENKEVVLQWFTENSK
# [2] = target: PDCoV S_(SD2018) ectodomain trimer (Porcine deltacoronavirus (PDCoV), isolate SD2018/300); assay: cryo-EM structure; 1.5 uM PDCoV S SD2018/300 with 4.5 uM PD41 Fab, 1 hour at 4 C; 3D classification into four classes, local refinement of the RBD:PD41 region
# [3] = target: T1, PDCoV_(IL121_2014) receptor-binding domain (Porcine deltacoronavirus (PDCoV), …); assay: BLI
# T1 chain: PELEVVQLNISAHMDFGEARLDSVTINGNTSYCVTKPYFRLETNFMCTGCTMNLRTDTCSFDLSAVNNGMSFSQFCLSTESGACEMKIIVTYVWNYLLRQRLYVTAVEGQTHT
# [4] = target: T1, PDCoV_(IL121_2014) receptor-binding …; assay: BLI
Molecule,fold greater affinity than RBD (IL121 2014) [1] [fold],stoichiometry N [2],koff [3],Kd [4]
PDCoV SD2018/300 receptor-binding domain (domain or fragment),5,,,
PDCoV S_(SD2018) ectodomain trimer (natural protein),,3,,
B1,,,0.000586 s⁻¹ and 0.000542 s⁻¹,4.36 nM
B2,,,0.00177 s⁻¹ and 0.002 s⁻¹,22.6 nM and 37.2 nM
